The record followed here is paper doi:10.1101/2025.05.24.655970.

Usually stoichiometry N stands for the number of molecules, sites or subunits per partner or assembly.

This assay has as its target Dob3, ferritin-like diiron oxidase/oxygenase (FDO) of the dob gene cluster (Nocardia ninae). The assay is described as follows: SEC; size-exclusion chromatography of purified Dob3; column and buffer not told in the text shown (Supplementary Figure 19).

For “Dob3, ferritin-like diiron oxidase/oxygenase (FDO) of the dob gene cluster (enzyme)”, the stoichiometry N worked out at 2.
